Measured values: patent US20170204174A1 (published 2017)
Values belong to the molecule of their own block, whether it stands above or below them.

Columns and labels:
[1] = target: recombinant mature human GDF-15 protein (SEQ ID No: 8) (human) (UniProt Q99988); assay: Surface Acoustic Wave (SAW) gold chip biosensor
[2] = target: T1, recombinant mature human GDF-15 protein (SEQ ID No: 8) (human, UniProt Q99988 197-308); assay: Surface Acoustic Wave (SAW) gold chip biosensor
T1 construct: also called recombinant human GDF-15; recombinant GDF-15
T1 sequence: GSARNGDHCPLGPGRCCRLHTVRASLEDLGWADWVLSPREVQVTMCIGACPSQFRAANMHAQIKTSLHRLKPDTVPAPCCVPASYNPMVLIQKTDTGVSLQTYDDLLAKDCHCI

[3] = target: T1, recombinant mature human GDF-15 protein …; assay: Surface Acoustic Wave (SAW) gold chip biosensor; antibody as serum-free CHO culture supernatant
[4] = target: T1, recombinant mature human GDF-15 protein …; assay: Surface Acoustic Wave (SAW) gold chip biosensor; remark: listed apart in the source
[5] = target: human Interleukin-5 (human, UniProt P05113 20-134); assay: SPR (ProteOn XPR36), IL-5 immobilised, antibody as analyte
Description: (§1) For preparing the biosensors recombinant mature human GDF-15 protein was immobilized on flow cells 1 and 2. On one flow cell recombinant GDF-15 derived from Baculvirus-transfected insect cells (HighFive insect cells) and on the other recombinant protein derived from expression in E. coli was used. The GLC sensor chip was activated using Sulfo-NHS (N-Hydroxysulfosuccinimide) and EDC (1-Ethyl-3-[3-dimethylaminopropyl]carbodiimide hydrochloride) (Bio-Rae ProteOn™ Amine Coupling Kit) according to the manufacturer's recommendation, the sensor surface was subsequently loaded with the proteins up to a density of about 600 RU (1 Ru=1 pg mm⁻²). The non-reacted coupling groups were then quenched by perfusion with 1M ethanolamine pH 8.5 and the biosensor was equilibrated by perfusing the chip with running buffer ([…], 150 mM NaCl, 3.4 mM EDTA, 0.005% Tween®20, pH 7.4, referred to as HBS150). As controls two flow cells were used, one empty with no protein coupled and one coupled with an non-physiological protein partner (human Interleukin-5), which was immobilized using the same coupling chemistry and the same coupling density. […] The resulting sensogram was analyzed using the software ProteOn Manager version 3.0. […]

[6] = target: T1, recombinant mature human GDF-15 protein …; assay: SPR (ProteOn XPR36), KD=koff/kon, insect-cell GDF-15 immobilised
Description: as §1

[7] = target: T2, recombinant mature human GDF-15 protein derived from expression in E. coli (human, UniProt Q99988 195-308); assay: SPR (ProteOn XPR36), E. coli GDF-15 immobilised, antibody as analyte
T2 construct: mature; also called GDF-15 derived from E. coli expression
T2 sequence (looked up): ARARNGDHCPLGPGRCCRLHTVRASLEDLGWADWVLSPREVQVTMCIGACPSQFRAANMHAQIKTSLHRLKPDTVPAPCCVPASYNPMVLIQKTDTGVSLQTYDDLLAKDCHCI
Description: as §1

[8] = target: T1, recombinant mature human GDF-15 protein …; assay: SPR (ProteOn XPR36), insect-cell GDF-15 immobilised, antibody as analyte, 1:1 Langmuir, 25° C.
Description: as §1

Chain of human Interleukin-5 (P05113 20-134 limits assumed): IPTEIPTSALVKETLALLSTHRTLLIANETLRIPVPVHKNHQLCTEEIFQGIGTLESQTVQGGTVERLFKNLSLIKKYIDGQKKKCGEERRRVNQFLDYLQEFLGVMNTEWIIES

- Kd [1]: 1120 nM
Molecule: Rituxumab (control antibody)

- fold higher affinity than the murine B1-23 antibody [2]: ~5 fold
- Kd [3]: 5.62 nM
B1: H1L5 humanized B1-23 anti-GDF-15 antibody (antibody, human IgG1, V domains shown)
VH: QITLKESGPTLVKPTQTLTLTCTFSGFSLSTSGMGVSWIRQPPGKGLEWLAHIYWDDDKRYNPTLKSRLTITKDPSKNQVVLTMTNMDPVDTATYYCARSSYGAMDYWGQGTLVTVSS
VL: DIVLTQSPSFLSASVGDRVTITCKASQNVGTNVAWFQQKPGKSPKALIYSASYRYSGVPDRFTGSGSGTEFTLTISSLQPEDFAAYFCQQYNNFPYTFGGGTKLEIKR
notes: Human IgG1 (trastuzumab backbone); also called H1L5 anti-GDF-15 antibody; humanized B1-23-H1L5 antibody

- Kd [4]: 28.8 nM
- Kd [6]: ~0.79 nM
- factor by which the affinity differs from that for insect-cell GDF-15 [7]: < 2 fold
- koff [8]: 0.00043 s⁻¹
- kon [8]: 540000 M⁻¹ s⁻¹
B2: murine monoclonal anti-human GDF-15 antibody mAb-B1-23 (antibody, V domains shown)
VH: QVKLQQSGPGILQSSQTLSLTCSFSGFSLSTSGMGVSWIRQPSGKGLEWLAHIYWDDDKRYNPTLKSRLTISKDPSRNQVFLKITSVDTADTATYYCARSSYGAMDYWGQGTSVTVSS
VL: DIVLTQSPKFMSTSVGDRVSVTCKASQNVGTNVAWFLQKPGQSPKALIYSASYRYSGVPDRFTGSGSGTDFTLTISNVQSEDLAEYFCQQYNNFPYTFGGGTKLEIKR
notes: also called anti-human GDF-15 mAb-B1-23; B1-23 anti-GDF-15 antibody (murine, IgG2a)
- binding result [5]: no binding (tested: 0.4, 0.8, 3, 12, 49 and 98 nM)

- fold higher affinity than the murine B1-23 antibody [2]: ~2 fold
- Kd [4]: 14 nM
B3: chimeric anti-human GDF-15 mAb-B1-23 antibody (antibody, human IgG1, kappa, V domains shown)
VH: QVKLQQSGPGILQSSQTLSLTCSFSGFSLSTSGMGVSWIRQPSGKGLEWLAHIYWDDDKRYNPTLKSRLTISKDPSRNQVFLKITSVDTADTATYYCARSSYGAMDYWGQGTSVTVSS
VL: DIVLTQSPKFMSTSVGDRVSVTCKASQNVGTNVAWFLQKPGQSPKALIYSASYRYSGVPDRFTGSGSGTDFTLTISNVQSEDLAEYFCQQYNNFPYTFGGGTKLEIKR
notes: Murine variable domains, constant domains of a human IgG1 (trastuzumab backbone); also called Chimeric B1-23 anti-GDF-15 antibody; chimeric B1-23
